Results published in US20090047301A1.

Key:
[1] = molecular target: HPV16 L2 in HPV16 L1/L2 capsids (pseudovirions, L1/L2 VLPs) (human papillomavirus 16 (HPV16)) (UniProt P03107)
[2] = molecular target: HPV16 L2 in HPV16 L1/L2 capsids (pseudovirions, L1/L2 VLPs) (human papillomavirus 16 (HPV16)) (UniProt P03107); assay: HPV16 L1/L2 VLP ELISA
[3] = molecular target: HPV16 L2 in HPV16 L1/L2 capsids (pseudovirions, L1/L2 VLPs) (human papillomavirus 16 (HPV16)) (UniProt P03107); remark: listed apart in the source
[4] = molecular target: HPV18 L2 in HPV18 pseudovirions (human papillomavirus 18 (HPV18)) (UniProt P06793)
[5] = molecular target: full length HPV16 L2 protein (ELISA and Western blot antigen) (human papillomavirus 16 (HPV16)) (UniProt P03107); assay: L2 protein ELISA, undiluted hybridoma supernatant
[6] = molecular target: HPV16 L2 in HPV16 L1/L2 capsids (pseudovirions, L1/L2 VLPs) (human papillomavirus 16 (HPV16)) (UniProt P03107); assay: HPV16 L1/L2 VLP ELISA, undiluted hybridoma supernatant

## RG-1 (antibody)
[1]
  HPV16 neutralization (undiluted hybridoma supernatant titrated) (titer (1:x dilution)): 1280
[2]
  ELISA titer (titer (1:x dilution)): 1.02e+06
[3]
  neutralization of HPV16 pseudovirions, RG-1 ascites (titer (1:x dilution)): 205000
[4]
  neutralization of HPV18 pseudovirions, RG-1 ascites (titer (1:x dilution)): 25600
[5]
  OD405 L2 ELISA: 1.3 OD405
[6]
  OD405 L1/L2 ELISA: 0.9 OD405
